According to paper PMC3286869 (Journal of Medicinal Chemistry, 2012):
Where two headings read alike, the source gives them in different places. Bridges are numbered along the chain shown (N, C = ends). Where no end group is shown, it is not given here. [ ]: non-standard residue; d: D form. dLys(N3) = [N-]=[N+]=NCCCC[C@@H](N)C(=O)O; Lys(N3) = [N-]=[N+]=NCCCC[C@H](N)C(=O)O; dPra = C#CC[C@@H](N)C(=O)O; Pra = C#CC[C@H](N)C(=O)O

How the values were obtained:
[1] = molecular target: T1, β-catenin (UniProt P35222 1-781); test: fluorescence polarisation
T1 sequence (looked up): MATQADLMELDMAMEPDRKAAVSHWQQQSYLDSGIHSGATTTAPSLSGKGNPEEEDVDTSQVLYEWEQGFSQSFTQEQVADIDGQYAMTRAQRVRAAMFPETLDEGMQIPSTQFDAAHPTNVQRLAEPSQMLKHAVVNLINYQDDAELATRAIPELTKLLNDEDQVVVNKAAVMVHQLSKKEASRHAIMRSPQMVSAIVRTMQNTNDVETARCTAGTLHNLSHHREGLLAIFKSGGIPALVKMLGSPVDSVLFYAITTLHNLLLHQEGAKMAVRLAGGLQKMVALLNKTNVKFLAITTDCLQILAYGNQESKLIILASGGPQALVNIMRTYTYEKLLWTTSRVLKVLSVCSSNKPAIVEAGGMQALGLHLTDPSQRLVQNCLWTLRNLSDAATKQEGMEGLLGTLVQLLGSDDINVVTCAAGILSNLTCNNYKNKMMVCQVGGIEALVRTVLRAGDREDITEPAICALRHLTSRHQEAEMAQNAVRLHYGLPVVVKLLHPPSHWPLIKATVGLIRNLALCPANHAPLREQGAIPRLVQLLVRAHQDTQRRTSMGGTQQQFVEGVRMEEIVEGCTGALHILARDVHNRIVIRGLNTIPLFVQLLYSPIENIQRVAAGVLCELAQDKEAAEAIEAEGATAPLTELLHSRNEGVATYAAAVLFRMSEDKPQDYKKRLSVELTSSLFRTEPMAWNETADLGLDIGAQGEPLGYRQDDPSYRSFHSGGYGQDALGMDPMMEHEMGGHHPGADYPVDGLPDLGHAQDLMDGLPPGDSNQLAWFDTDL

[2] = molecular target: T1, β-catenin; test: fluorescence polarisation; remark: listed apart in the source

For LSQEQLEHR[Lys(N3)]RSL[Pra]TLRDIQRLLF (not fully specified (N-terminus, C-terminus)) [BCL9 peptide 3 (linear precursor of 11)], which Ki [1] is on record?
Its Ki is 1400 nM.

Which Ki [1] does the source give for LSQEQLEHR[Pra]RSL[Lys(N3)]TLRDIQRLLF (triazole 10-14; not fully specified (N-terminus, C-terminus)) [triazole-stapled BCL9 peptide 16 (reversed linker, L-Pra and L-Nle(εN3))] here?
The Ki was 770 nM.

How did the Ki [1] turn out when LSQEQLEHR[Pra]RSL[dLys(N3)]TLRDIQRLLF (triazole 10-14; not fully specified (N-terminus, C-terminus)) [triazole-stapled BCL9 peptide 17 (reversed staple, D-Nle(εN3) at i+4)] was run?
Its Ki is 1170 nM.

Which Ki [2] does the source give for LSQEQLEHRERSL[Pra]TLR[dLys(N3)]IQRLLF (triazole 14-18; not fully specified (N-terminus, C-terminus)) [triazole-stapled BCL9 peptide 24 (reverse staple towards the C-terminus)] here?
Its Ki is 560 nM.

Which Ki [2] does the source give for LSQEQLEHRERSL[Lys(N3)]TLR[dPra]IQRLLF (triazole 14-18; not fully specified (N-terminus, C-terminus)) [triazole-stapled BCL9 peptide 22 (C-terminal stapled peptide)] here?
The Ki was 260 nM.

How did the Ki [2] turn out when LSQEQ[Lys(N3)]EHR[dPra]RSLQTLRDIQRLLF (triazole 6-10; not fully specified (N-terminus, C-terminus)) [triazole-stapled BCL9 peptide 20 (staple closer to the N-terminus)] was run?
The Ki was 410 nM.

Ac-LSQEQLEHRERSLQTLRDIQRMLF-NH2 [BCL9 24-mer peptide 1] was tested. Which Ki [1] did it give?
Its Ki is 600 nM.

For Ac-LSQEQLEHRERSLQTLRDIQRLLF-NH2 [BCL9 24-mer peptide 2 (M372L)], which Ki [1] is on record?
Its Ki is 940 nM.

How did the Ki [1] turn out when LSQEQLEHR[Lys(N3)]RSL[dPra]TLRDIQRLLF (not fully specified (N-terminus, C-terminus)) [BCL9 peptide 4 (linear precursor of 12)] was run?
Its Ki is 4900 nM.

Which Ki [1] does the source give for LSQEQLEHR[Lys(N3)]RSL[Pra]TLRDIQRLLF (triazole 10-14; not fully specified (N-terminus, C-terminus)) [triazole-stapled BCL9 peptide 11] here?
Its Ki is 330 nM.

LSQEQ[Lys(N3)]EHR[dPra]RSLQTLRDIQRLLF (not fully specified (N-terminus, C-terminus)) [BCL9 peptide 19 (linkers closer to the N-terminus, linear)] was tested. Which Ki [2] did it give?
The Ki was 1970 nM.

Which Ki [1] does the source give for LSQEQLEHR[dPra]RSL[Lys(N3)]TLRDIQRLLF (triazole 10-14; not fully specified (N-terminus, C-terminus)) [triazole-stapled BCL9 peptide 18 (reversed staple, D-Pra at position 360)] here?
Its Ki is 4300 nM.

With LSQEQLEHR[Pra]RSL[dLys(N3)]TLRDIQRLLF (not fully specified (N-terminus, C-terminus)) [BCL9 peptide 9 (linear precursor of 17)] as the binder, how does the Ki [1] read?
Its Ki is 11000 nM.

Which Ki [1] does the source give for LSQEQLEHR[Lys(N3)]RSL[dPra]TLRDIQRLLF (triazole 10-14; not fully specified (N-terminus, C-terminus)) [triazole-stapled BCL9 peptide 12] here?
The Ki was 130 nM.

With LSQEQLEHRERSL[Pra]TLR[dLys(N3)]IQRLLF (not fully specified (N-terminus, C-terminus)) [BCL9 peptide 23 (reverse linkers towards the C-terminus, linear)] as the binder, how does the Ki [2] read?
Its Ki is 6660 nM.

Which Ki [2] does the source give for LSQEQLEHRERSL[Lys(N3)]TLR[dPra]IQRLLF (not fully specified (N-terminus, C-terminus)) [BCL9 peptide 21 (linkers closer to the C-terminus, linear)] here?
The Ki was 2010 nM.
